Experimental data taken from patent US20230242902A1, “A HIGHLY ERROR-PRONE […] R[…] FOR TARGETED CONTINUOUS EVOLUTION IN VIVO” (The Regents of the University of California, priority 2017, published 2023).
Numbering of substitutions follows the chain as printed. Numbers in names are those of the source.

B1: H694T: TP-DNAP1 variant (protein)
chain: MDYKDKALNDLRNVYADFDSLPLDFRQILIKDRATLLQKEDVEKKILERQEDAKKYAEYLKQSEIPERISLPNIKRHKGVSISFEETSEDMVLEPRPFIFDGLNIRCFRRETIFSLKNKILNMVKESSSFKNVSRQSVSFMYFKIFNKGKVIASTKSVNIYEDKIDERLEDLCNNFDDVLKKIIDVTYGYESLFVSETYSYVIFYAKSIYFPQPRCVNNWGNNIPNILTFDSFKLFTANKNNVSCIKQCSRFLWQKDFNTLEEMIEYKNGNICIVTPQLHINDVRDIKSFNDIRLYSESPIKTFSVIDNTITYLFYFKEHLGVIFNITKSRHDRRVTKFSPLSKFSDVKNITVCFDIESYFDPEKESNQVNIPFICCASIIYNKVIGNIVDFEGRDCVAQMIEYVVDICGELNISSVELIAHNGGGYDFHYILSSMYNPAAIKNILIRNNSFISFNFAHDGVKFSVKDSYSFLLCSLANASKAFLNEETFKKTDFPHHDLKTADDLYKVYKEWSSVNTEINHVVEKEKLLITSEHIVNFTKNDKSKTLIEWSKDYCRNDVLVLSKVWLEFKNAVEDIFNCELVDQTMTLAGLSYKLFQANMPFDVELRHPNKEDYFNMREALIGGRCISVNGIYKDVLCLDVKSLYPASMAFYDQPYGSFKRVSSRPKDELGIYYVRVTPNRNNKSNFFPIRSTNKITYNNFEESTYIAWYTNVDIDIGLSEGHNIEYIPFDSYGNIGYSWSKKGKIFEKYIKDVLYKLKIKYEKQNNKVKRNVIKIIMNSLWGKFAQKWVNFEYFIKSEDDIDFESEEAYKIWDTDFMLIKKIKESTYSSKPIQNGVFTLSWARYHMKSIWDAGAKEGAECIYSDTDSIFVHKEHFKKNAKFMLNGLKVPIIGSEVGQLELECEFDKLLCAGKKQYMGFYTYFQDGKPCIKEKKRFKGIPSNYIIPELYAHLLSGADKEAKIQFLKFRREWGSVKGYIENKTVKAT
B2: K696T: TP-DNAP1 variant (protein)
chain: B1 chain with T694H, K696T
B3: N695H: TP-DNAP1 variant (protein)
chain: B1 chain with T694H, N695H
B4: K696G: TP-DNAP1 variant (protein)
chain: B1 chain with T694H, K696G
B5: E703R: TP-DNAP1 variant (protein)
chain: B1 chain with T694H, E703R
B6: N695Q: TP-DNAP1 variant (protein)
chain: B1 chain with T694H, N695Q
B7: K696Y: TP-DNAP1 variant (protein)
chain: B1 chain with T694H, K696Y
B8: T698L: TP-DNAP1 variant (protein)
chain: B1 chain with T694H, T698L
B9: E298G, S305F: TP-DNAP1 variant (protein)
chain: B1 chain with E298G, S305F, T694H
B10: K696S, E704V: TP-DNAP1 variant (protein)
chain: B1 chain with T694H, K696S, E704V
B11: E704G: TP-DNAP1 variant (protein)
chain: B1 chain with T694H, E704G
B12: S705R: TP-DNAP1 variant (protein)
chain: B1 chain with T694H, S705R
B13: K696C: TP-DNAP1 variant (protein)
chain: B1 chain with T694H, K696C
B14: N695F: TP-DNAP1 variant (protein)
chain: B1 chain with T694H, N695F
B15: T698A: TP-DNAP1 variant (protein)
chain: B1 chain with T694H, T698A
B16: K696M: TP-DNAP1 variant (protein)
chain: B1 chain with T694H, K696M
B17: E704N: TP-DNAP1 variant (protein)
chain: B1 chain with T694H, E704N
B18: N695S: TP-DNAP1 variant (protein)
chain: B1 chain with T694H, N695S
B19: T698M: TP-DNAP1 variant (protein)
chain: B1 chain with T694H, T698M
B20: E704K: TP-DNAP1 variant (protein)
chain: B1 chain with T694H, E704K
B21: E703H: TP-DNAP1 variant (protein)
chain: B1 chain with T694H, E703H
B22: E298G: TP-DNAP1 variant (protein)
chain: B1 chain with E298G, T694H
B23: E704D: TP-DNAP1 variant (protein)
chain: B1 chain with T694H, E704D
B24: N695E: TP-DNAP1 variant (protein)
chain: B1 chain with T694H, N695E
B25: E704M: TP-DNAP1 variant (protein)
chain: B1 chain with T694H, E704M
B26: E703W: TP-DNAP1 variant (protein)
chain: B1 chain with T694H, E703W
B27: E704I: TP-DNAP1 variant (protein)
chain: B1 chain with T694H, E704I

System: p1
Test: p1 copy number by p1-encoded mKate2 fluorescence
Format: cell-based, S. cerevisiae
Details: OR-Y24, measured in triplicate
How it was run: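 Yeast OR-Y24 strains carrying TP-DNAP1 variants were grown to saturation from a 1:10,000 dilution, and p1-encoded mKate2 fluorescence was measured by flow cytometry (ex/em 561/620 nm). Values were converted to copy number via a linear calibration against qPCR of p1-encoded LEU2 versus genomic LEU3, or by plate-reader OD600-normalized fluorescence relative to w.t. TP-DNAP1.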

| Molecule | Mean fold-increase over w.t. (p1 copy number) |
| --- | --- |
| B1 | 1.92 fold |
| B2 | 2.12 fold |
| B3 | 1.76 fold |
| B4 | 2.11 fold |
| B5 | 1.84 fold |
| B6 | 1.68 fold |
| B7 | 1.49 fold |
| B8 | 2 fold |
| B9 | 2.06 fold |
| B10 | 1.86 fold |
| B11 | 1.75 fold |
| B12 | 1.84 fold |
| B13 | 1.87 fold |
| B14 | 1.44 fold |
| B15 | 2.02 fold |
| B16 | 1.71 fold |
| B17 | 1.85 fold |
| B18 | 1.82 fold |
| B19 | 1.75 fold |
| B20 | 1.8 fold |
| B21 | 1.53 fold |
| B22 | 2.64 fold |
| B23 | 1.89 fold |
| B24 | 2.34 fold |
| B25 | 2.02 fold |
| B26 | 1.72 fold |
| B27 | 1.35 fold |
